According to US9175027B2, “Polymer-carbohydrate-lipid conjugates” (priority 2011, dated 2015):
Ends that are not written are not given here.

Tests used:
[1] = Stability of peptide solution by HPLC assay; assay type: physicochemical; conditions: 24 hours
Description: Stability experiment was carried out by HPLC assay and a custom synthesized thermolabile peptide with the following sequence was used as the model compound: […] The peptide was added to selected media and sonicated for 10 minutes. The sample solutions were filtered through passed through 0.22-μm pore-size filter to remove dust particles before the HPLC assay. A Simadzu 10avp chromatography system with a Kinetex C18 (2.6 μm, 100×4.6 mm i.d.) column (Phenomenex, Torrance, Calif.) were used. The solutions were kept at 25° C. in the Autosampler during the assay and the mobile phase consisted of 0.1% of trifluoroacetic acid and acetonitrile mixture (v/v, 80/20) with a flow rate of 1.0 mL/min. The peptide peak was monitored at 210 nm and quantitated using external standard sets of the peptide.
The plots were the % recovery vs. time.

[2] = Body weight change as evidence of cisplatin renal toxicity; assay type: in vivo, mice (B6D2F1); conditions: mice, compared with free sugars
Description: Groups of four each of mixed gender mice (B6D2F1), […] and weights of 22 to 30 grams) were studied in duplicate. Each mouse was administrated cisplatin intravenously at a dose of 10 mg/kg (Table 15) and Intraperitoneally at a dose of 15 mg/kg (Table 16). The changes in body weights observed can be used as a direct evident in the renal toxicity effects.

[3] = Physical state of Propofol formulation with PEG-carbohydrate-lipid (solution vs suspension/microemulsion); assay type: physicochemical
Description: A propofol solution suitable for intravenous delivery is prepared as follows. 5% (w/v) of OAPDL-PEG in Saline was added to a vessel equipped with a mixer propeller and 2% (w/v) of Propofol was added with constant mixing at ambient room temperature. Mixing was continued until the drug was visually dispersed. Equal volume of Saline was added to the vessel with adequate mixing. Mixing continued for another 30 minutes or until a homogenous solution was achieved. A sample formulation is described in Table 14.
In Example 16, less concentrated or less purified PEG-sugar-lipid will create a suspension instead of an aqueous solution. For instance, the final concentration of the PEG-carbohydrate-lipid is less than 1.5% (w/v), it will form a suspension. Similarly when the oligomer purity is 80% or less, regardless the concentration of the PEG-carbohydrate-lipid, an emulsified solution will be observed instead of a transparent solution.
Propofol as the active agent was formulated with various polymer-lipid-carbohydrate conjugates described in the present invention. At a lower of the polymer-lipid-carbohydrate conjugate concentration, i.e., OAPDL-11 (<1.5%), the formulation is a microemulsion and at a higher OAPDL-11 concentration (≧2.2%), it is a true solution.
A solution is defined as a homogenous mixture of substances with variable composition. […]

Substance: FPKLSHGCNKHSRKHPYMTF [peptide, custom synthesized thermolabile peptide used as the model compound]
- peptide degradation ([1]; in a 50 mM of phosphate buffer): degraded significantly
- peptide still remaining ([1]; in a 2% of PEG-carbohydrate-lipid): more than 97%

Substance: oleoyl-N-(3-aminopropyl)propane-1,3-diamine-Undecaethylene glycol methyl ether Lactobionate [OAPDL-11]
- intravenous hydration effect for reducing renal toxicity of cisplatin [2]: better than free sugars
- state of Propofol formulation ([3]; OAPDL-11 concentration <1.5%): microemulsion
- state of Propofol formulation ([3]; OAPDL-11 concentration ≧2.2%): true solution
